The source of these data is article PMC2329594, “A Minimal Fragment of MUC1 Mediates Growth of Cancer Cells” (PLoS ONE, 2008).

The series concerns the molecule itself. Briefly: gold nanoparticle aggregation (colour change); histidine-tagged peptides (100 uM in PBS) on NTA-Ni gold nanoparticles, alone or mixed; colour change after 15 minutes.

B1: MUC1_(ecd-EXT) peptide (peptide, UniProt P15941 1101-1148, looked up)
peptide: VQLTLAFREGTINVHDVETQFNQYKTEAASRYNLTISDVSVSDVPFPF
notes: MUC1, human; also called shifted frame peptide; N-1101-1148-C; source: synthetic peptide
For B1, the binding result was “binds”.

B2: MUC1_(SAD (self-aggregation domain)) peptide (peptide, UniProt P15941 1084-1109, looked up)
peptide: GGFLGLSNIKFRPGSVVVQLTLAFRE
notes: MUC1, human; also called N-1084-1109-C; source: synthetic peptide
For the protein B2, the binding result is recorded as “binds”.
